# Patent publication US20250059285A1 (ARGENX, published 2025)
# T1: human Gal10-His (human, UniProt Q05315 2-142, limits assumed)
# T1 construct: also called hGal10-His; human Gal10-His tagged; not shown: His tag
# T1 sequence: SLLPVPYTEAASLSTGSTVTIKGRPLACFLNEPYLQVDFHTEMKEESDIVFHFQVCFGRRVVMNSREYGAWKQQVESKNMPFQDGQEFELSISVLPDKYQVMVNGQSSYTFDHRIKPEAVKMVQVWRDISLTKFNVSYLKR
# T2: recombinant human Charcot-Leyden crystals (crystalline galectin-10) (human, UniProt Q05315 2-142, limits assumed)
# T2 sequence: T1 sequence
# B1: g23H09 (Fab) (Fab, V domains shown)
# VH: EVQLLESGGGLVQPGGSLRLSCAASGFTFRSYDMSWVRQAPGKGLEWVSAIAQFQHWTYYADSVKGRFTISRDNSKNTLYLQMNSLRAEDTAVYYCATTHGIGTLGFGSWGQGTLVTVSS
# VL: SYELTQPLSVSVALGQTARITCDGNNIGSKSAQWYQQKPGQAPVLVIYADEYRPEGIPERFSGSNSGNTATLTISRAQAGDEADYYCQVWDGSAAVFGGGTQLTVL
# notes: same VH/VL
# Experiments:
# [1] = biological target: T3, cynomolgus Gal10-His (WGS isoform) (cynomolgus); experiment: SPR Biacore 3000, hFab on captured cynomolgus Gal10-His (WGS); column head prints (M), the text gives nM
# T3 construct: also called cynomolgus antigen
# How it was run: (§1)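 Fab binding measured by SPR on Biacore 3000, with His-tagged human or cynomolgus (WGS isoform) Gal10 captured on an anti-His antibody-coated CM5 chip. Clones applied either at two concentrations (cynomolgus only) or as a serial dilution.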
# [2] = biological target: T1, human Gal10-His; experiment: SPR, overview table of lead Fab candidates
# [3] = biological target: T1, human Gal10-His; experiment: SPR Biacore 3000, hFab on human Gal10-His captured by anti-His CM5
# [4] = biological target: T3, cynomolgus Gal10-His (WGS isoform); experiment: SPR, summary table, cynomolgus_WGS Gal10
# [5] = biological target: T1, human Gal10-His; experiment: SPR Biacore 3000, purified hFab (2 conc.) on Gal10-His captured by anti-His CM5
# [6] = biological target: T3, cynomolgus Gal10-His (WGS isoform); experiment: SPR on cynomolgus Gal10-His (WGS isoform)
# [7] = biological target: T1, human Gal10-His; experiment: SPR Biacore 3000, hFab on captured human Gal10-His; column head prints (M), the text gives nM
# [8] = biological target: T1, human Gal10-His; experiment: SPR against T0 reference; sample 4 weeks at 37 C
# Procedure: The functional active concentration of the candidates was then assessed by SPR on a Biacore 3000 instrument (FIG. 4). All samples were evaluated with methods meeting the standard qualification criteria. Aliquots were tested at predefined test concentrations against titration curves from reference samples (T0, −80° C. storage) and in the presence of quality control (QC) samples covering a range of 70-130% relative activity (% RA) towards the reference material.
# comparison/reference ⁽¹⁾ samples correspond to aliquots kept at +37° C. for 4 weeks ⁽²⁾ samples correspond to aliquots kept at +5° C. for 4 weeks prior to nebulization. In brief, samples were nebulized with an Aerogen Solo active vibrating mesh nebulizer that converted a drug solution into an inhalable aerosol. Three different devices for each time-point were used per clone and results are reported by the device (nebulizer) serial number. In case of device fouling, indicated by longer nebulization times […]
# [9] = biological target: T1, human Gal10-His; experiment: SPR Biacore 3000, purified hFab on captured Gal10-His
# [10] = biological target: T1, human Gal10-His; experiment: SPR Biacore 3000, Fab periplasmic extract on Gal10-His-coated CM5
# Procedure: The binding properties of the Fabs (periplasmic extract) to human Gal10-His were analyzed by SPR with a Biacore 3000 instrument. For this purpose, the diluted periplasmic extract was applied on a CM5 chip coated with human Gal10-His. As a positive control, a 20 nM injection of the purified g7B07 clone in the human Fab backbone was included at the beginning and end of the run.
# The binding capacity of the Fab periplasmic extract was analyzed by SPR technology using a Biacore 3000. Briefly, diluted periplasmic extracts were injected on CM5 chip coated with 2500 RU of Gal10-His. The amplitude of the binding (Rmax), the dissociation (off-rate) of each clone, as well as the off-rate fold change compared to the controls (g7B07 and g7B07_N53A) are indicated. Clones g20H09 and g23H09 had similar or better off rate compared to the control g7B07 (Table 10). The randomized part of the CDR2 sequence is underlined (Table 10).
# [11] = biological target: T2, recombinant human Charcot-Leyden …; experiment: cell-based or functional assay
# [12] = biological target: T3, cynomolgus Gal10-His (WGS isoform); experiment: SPR Biacore 3000, hFab on cynomolgus Gal10-His (WGS) captured by anti-His CM5
# How it was run: as §1
# [13] = biological target: T1, human Gal10-His; experiment: SPR, summary table, human Gal10
binder,measurement,setting,value
B1,Kd,[1],9.9 nM
same,Kd,[2],5.3 nM
same,koff,[2],0.0031 s⁻¹
same,Amplitude R0,[3],722 RU
same,koff,[3],0.0031 s⁻¹
same,kon,[3],590000 M⁻¹ s⁻¹
same,Kd,[4],9.9 nM
same,koff,[4],0.0095 s⁻¹
same,Kd,[5],3.9 nM
same,kd-fold drop vs g7B07,[5],1.8 fold
same,koff,[5],0.0025 s⁻¹
same,kon,[5],650000 M⁻¹ s⁻¹
same,fold better affinity than g7B07,[6],7 fold
same,Kd,[7],5.34 nM
same,% relative activity by SPR,[8],93%
same,fold better affinity than g7B07,[9],2.8 fold
same,Fold off-rate compared to g7B07,[10],0.4 fold
same,koff,[10],0.0027 s⁻¹
same,"recGal10 crystal dissolution EC50 (T2 h), Assay 1, nebulized",[11],297 µg/mL
same,"recGal10 crystal dissolution EC50 (T2 h), Assay 1, stressed (4 W at 37 C)",[11],361 µg/mL
same,"recGal10 crystal dissolution EC50 (T2 h), Assay 1, unstressed (T0)",[11],252 µg/mL
same,"recGal10 crystal dissolution EC50 (T2 h), Assay 2, nebulized",[11],209 µg/mL
same,"recGal10 crystal dissolution EC50 (T2 h), Assay 2, stressed (4 W at 37 C)",[11],191 µg/mL
same,"recGal10 crystal dissolution EC50 (T2 h), Assay 2, unstressed (T0)",[11],190 µg/mL
same,Amplitude R0,[12],589 RU
same,koff,[12],0.0095 s⁻¹
same,kon,[12],950000 M⁻¹ s⁻¹
same,Kd,[13],5.34 nM
same,koff,[13],0.0031 s⁻¹
